Target: PDL1 on DMS 273-PDL1 target cells (UniProt Q9NZQ7)
Assay: cell-based or functional assay

UniProt Q9NZQ7, sequence (Q9NZQ7 19-290 limits assumed): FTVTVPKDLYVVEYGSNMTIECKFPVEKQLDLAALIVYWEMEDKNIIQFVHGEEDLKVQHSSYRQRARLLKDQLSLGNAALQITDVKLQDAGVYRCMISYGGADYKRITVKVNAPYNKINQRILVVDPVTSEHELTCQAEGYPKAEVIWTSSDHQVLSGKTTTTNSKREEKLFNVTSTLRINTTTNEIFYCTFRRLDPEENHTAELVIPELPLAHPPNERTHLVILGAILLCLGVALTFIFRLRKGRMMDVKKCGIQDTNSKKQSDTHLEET

cytokine secretion (IL-2, IFNγ; Meso Scale Discovery) [fold] | Substance
> 10 | HA PD1.CD28 chimeric switch receptor
> 10 | WT PD1.CD28 chimeric switch receptor
